Assay results reported in patent publication US11844843.

Molecular target: recombinant human TfR1 (transferrin receptor protein 1) (human) (UniProt P02786)
Test: Carterra LSA SPR, 25 C; IgG captured, hTfR1 as analyte; 1:1 fit

Chain of recombinant human TfR1 (transferrin receptor protein 1) (human) (P02786 89-760 limits assumed): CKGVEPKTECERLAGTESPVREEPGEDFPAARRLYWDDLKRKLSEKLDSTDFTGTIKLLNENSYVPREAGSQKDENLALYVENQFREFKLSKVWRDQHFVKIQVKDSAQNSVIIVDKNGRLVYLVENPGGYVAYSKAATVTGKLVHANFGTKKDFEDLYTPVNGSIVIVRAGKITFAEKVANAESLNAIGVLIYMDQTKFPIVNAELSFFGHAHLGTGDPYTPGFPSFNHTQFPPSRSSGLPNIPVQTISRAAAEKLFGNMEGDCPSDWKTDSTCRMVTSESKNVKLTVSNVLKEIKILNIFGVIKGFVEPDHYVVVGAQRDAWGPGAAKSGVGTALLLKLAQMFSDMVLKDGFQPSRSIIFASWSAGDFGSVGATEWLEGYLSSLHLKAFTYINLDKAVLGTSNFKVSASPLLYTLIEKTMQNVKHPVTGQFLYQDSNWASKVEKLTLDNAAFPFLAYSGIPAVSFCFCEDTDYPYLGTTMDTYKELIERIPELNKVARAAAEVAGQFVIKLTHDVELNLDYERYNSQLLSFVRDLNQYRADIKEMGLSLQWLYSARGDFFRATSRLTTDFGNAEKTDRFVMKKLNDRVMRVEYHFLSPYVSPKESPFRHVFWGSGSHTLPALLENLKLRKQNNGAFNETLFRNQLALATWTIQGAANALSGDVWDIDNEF

Kd: 0.536 nM
kon: 774000 M⁻¹ s⁻¹
Substance: OKT9 mIgG (control anti-TfR1 antibody)
